Patent US20260015426A1 (23ANDME, published 2026)
Like-named read-outs stand apart in the source and are kept apart here. One block for each binder: values may come before it.

Tests used:
[1] = molecular target: T1, human IL1RAP (hu-IL1RAP) on human cells (human, UniProt Q9NPH3 21-570); assay: cell-based or functional assay
T1 sequence: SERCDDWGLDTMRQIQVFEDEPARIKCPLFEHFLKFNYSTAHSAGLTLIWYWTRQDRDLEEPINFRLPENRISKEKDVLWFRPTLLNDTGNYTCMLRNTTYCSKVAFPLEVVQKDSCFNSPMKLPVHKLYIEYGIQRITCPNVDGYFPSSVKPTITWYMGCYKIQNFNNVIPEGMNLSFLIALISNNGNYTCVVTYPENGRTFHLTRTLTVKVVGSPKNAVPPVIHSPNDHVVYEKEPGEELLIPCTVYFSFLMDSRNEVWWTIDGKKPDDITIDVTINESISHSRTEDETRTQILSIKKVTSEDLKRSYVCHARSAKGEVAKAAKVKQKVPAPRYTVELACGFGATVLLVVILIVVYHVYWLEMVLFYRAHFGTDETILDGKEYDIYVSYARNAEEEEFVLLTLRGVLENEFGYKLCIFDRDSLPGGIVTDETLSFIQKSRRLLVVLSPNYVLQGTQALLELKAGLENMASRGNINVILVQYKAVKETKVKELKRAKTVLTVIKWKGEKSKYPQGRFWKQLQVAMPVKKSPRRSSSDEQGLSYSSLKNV

[2] = molecular target: T2, hu-M-IL1RAP construct, positions S21-T367 (extracellular domain of the membrane form of human IL1RAP) (human, UniProt Q9NPH3 21-367); assay: SPR, IgG analyte (apparent), 37 C, pH 6
T2 construct: Biotinylated when captured on the Biacore chip
T2 sequence: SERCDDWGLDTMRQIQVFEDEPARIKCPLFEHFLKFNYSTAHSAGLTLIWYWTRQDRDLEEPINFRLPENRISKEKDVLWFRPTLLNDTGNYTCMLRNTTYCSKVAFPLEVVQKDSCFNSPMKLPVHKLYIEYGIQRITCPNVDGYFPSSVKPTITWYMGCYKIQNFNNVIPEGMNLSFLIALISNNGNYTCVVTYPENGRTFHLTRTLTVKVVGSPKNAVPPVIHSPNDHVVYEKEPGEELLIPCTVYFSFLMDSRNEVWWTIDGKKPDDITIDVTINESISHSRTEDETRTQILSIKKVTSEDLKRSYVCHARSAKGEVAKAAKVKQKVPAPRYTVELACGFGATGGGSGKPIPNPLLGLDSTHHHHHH

[3] = molecular target: T3, cyno-M-IL1RAP construct, positions S21-T367 (cynomolgus monkey, UniProt P59822 21-367 (rhesus entry)); assay: SPR, IgG analyte (apparent), 37 C, pH 6
T3 construct: Biotinylated when captured on the Biacore chip; also called cy-M-IL1RAP
T3 sequence: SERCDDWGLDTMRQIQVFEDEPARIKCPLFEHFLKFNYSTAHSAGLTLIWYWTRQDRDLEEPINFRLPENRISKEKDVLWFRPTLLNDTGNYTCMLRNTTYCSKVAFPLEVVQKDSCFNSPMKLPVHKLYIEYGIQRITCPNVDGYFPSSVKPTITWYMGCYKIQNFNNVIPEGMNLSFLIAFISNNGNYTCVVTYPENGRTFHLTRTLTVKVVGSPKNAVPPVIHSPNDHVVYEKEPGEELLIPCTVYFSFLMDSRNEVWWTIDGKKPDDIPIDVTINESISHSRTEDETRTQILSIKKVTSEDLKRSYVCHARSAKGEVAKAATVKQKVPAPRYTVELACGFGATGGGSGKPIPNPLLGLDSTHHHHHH

[4] = molecular target: T2, hu-M-IL1RAP construct, positions …; assay: SPR, IgG analyte (apparent), 37 C, pH 7.4
[5] = molecular target: T3, cyno-M-IL1RAP construct, positions …; assay: SPR, IgG analyte (apparent), 37 C, pH 7.4
[6] = molecular target: T1, human IL1RAP (hu-IL1RAP) on human cells; assay: cell-based or functional assay; remark: listed apart in the source
[7] = molecular target: T2, hu-M-IL1RAP construct, positions …; assay: SPR, 37 C
[8] = molecular target: T3, cyno-M-IL1RAP construct, positions …; assay: SPR, 37 C
[9] = molecular target: T4, biotinylated human FcRn (Acro biosystems, catalogue number FCN-H52W7) (human, UniProt P55899 24-297; P61769 21-119, biotinylated); assay: SPR steady state, FcRn captured, 25 C, pH 6.0; pH 6.0
T4 construct: Bought reagent; also called hu-FcRn

[10] = molecular target: T5, biotinylated cyno FcRn (Acro biosystems, catalogue number FCM-C5284) (cynomolgus monkey, UniProt Q8SPV9 24-297; Q8SPW0 21-119, limits assumed, biotinylated); assay: as above
T5 construct: Bought reagent

[11] = molecular target: T2, hu-M-IL1RAP construct, positions …; assay: SPR, IgG analyte (apparent), pH 7.4, 37 C
[12] = molecular target: T3, cyno-M-IL1RAP construct, positions …; assay: SPR, IgG analyte (apparent), pH 7.4, 37 C
[13] = molecular target: T1, human IL1RAP (hu-IL1RAP) on human cells; assay: cell-based or functional assay; remark: listed apart in the source
[14] = molecular target: T6, hu-M-IL1RAP-D1D2 construct, positions S21-P237 (human); assay: ELISA, mAb at 10 nM
T6 chain: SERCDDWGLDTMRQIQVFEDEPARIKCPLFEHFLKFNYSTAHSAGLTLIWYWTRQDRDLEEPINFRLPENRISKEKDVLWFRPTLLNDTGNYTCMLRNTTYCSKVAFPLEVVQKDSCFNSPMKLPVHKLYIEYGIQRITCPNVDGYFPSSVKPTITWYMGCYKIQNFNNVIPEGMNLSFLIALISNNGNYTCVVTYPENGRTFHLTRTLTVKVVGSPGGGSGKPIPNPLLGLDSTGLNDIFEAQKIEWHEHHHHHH

[15] = molecular target: T2, hu-M-IL1RAP construct, positions …; assay: ELISA, mAb at 10 nM
[16] = molecular target: T2, hu-M-IL1RAP construct, positions …; assay: ELISA, hybridoma supernatant
[17] = molecular target: T7, hu-S-IL1RAP construct, positions S21-Q356 (soluble human IL1RAP) (human, UniProt Q9NPH3 21-350); assay: ELISA, purified mAb
T7 sequence: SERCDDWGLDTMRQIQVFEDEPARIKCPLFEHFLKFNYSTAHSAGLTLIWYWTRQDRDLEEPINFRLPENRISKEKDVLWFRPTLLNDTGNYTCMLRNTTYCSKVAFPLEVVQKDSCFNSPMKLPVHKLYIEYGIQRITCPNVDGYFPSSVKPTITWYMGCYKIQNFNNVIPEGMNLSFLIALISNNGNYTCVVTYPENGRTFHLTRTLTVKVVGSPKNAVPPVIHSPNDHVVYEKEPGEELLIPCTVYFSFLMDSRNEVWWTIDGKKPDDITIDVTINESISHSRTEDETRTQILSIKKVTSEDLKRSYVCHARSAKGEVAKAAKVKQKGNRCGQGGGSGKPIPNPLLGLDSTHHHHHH

[18] = molecular target: T2, hu-M-IL1RAP construct, positions …; assay: ELISA, purified mAb
[19] = molecular target: T8, mu-M-IL1RAP construct, positions S21-T367 (mouse, UniProt Q61730 21-367); assay: ELISA, purified mAb
T8 construct: also called mo-M-IL1RAP; mouse-M-IL1RAP
T8 sequence: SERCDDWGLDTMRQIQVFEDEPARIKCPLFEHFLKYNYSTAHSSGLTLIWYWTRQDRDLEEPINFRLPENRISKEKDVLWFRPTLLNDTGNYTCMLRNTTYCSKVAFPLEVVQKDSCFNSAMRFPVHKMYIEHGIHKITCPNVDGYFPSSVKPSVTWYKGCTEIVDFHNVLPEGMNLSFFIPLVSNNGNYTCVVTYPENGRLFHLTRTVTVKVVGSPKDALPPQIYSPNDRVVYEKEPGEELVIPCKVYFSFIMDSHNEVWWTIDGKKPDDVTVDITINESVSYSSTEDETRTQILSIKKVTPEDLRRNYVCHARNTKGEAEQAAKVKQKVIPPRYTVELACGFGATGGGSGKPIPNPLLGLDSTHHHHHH

[20] = molecular target: T3, cyno-M-IL1RAP construct, positions …; assay: ELISA, purified mAb
[21] = molecular target: T1, human IL1RAP (hu-IL1RAP) on human cells; assay: cell-based or functional assay; remark: listed apart in the source

HEK-Blue, IL-1β, % inhibition at 100 nM (IgG) [1]: 100%
HEK-Blue, IL-1β, IC50 (IgG) [1]: 0.513 nM
HEK-Blue, IL-33, % inhibition at 100 nM (IgG) [1]: 100%
HEK-Blue, IL-33, IC50 (IgG) [1]: 2.08 nM
HEK-Blue, IL-36α, % inhibition at 100 nM (IgG) [1]: 100%
HEK-Blue, IL-36α, IC50 (IgG) [1]: 0.622 nM
Kd [2]: 0.188 nM
koff [2]: 0.00056 s⁻¹
kon [2]: 2.98e+06 M⁻¹ s⁻¹
Kd [3]: 0.164 nM
koff [3]: 0.000324 s⁻¹
kon [3]: 1.98e+06 M⁻¹ s⁻¹
Kd [4]: 0.0185 nM
koff [4]: 3.51e-05 s⁻¹
kon [4]: 1.9e+06 M⁻¹ s⁻¹
Kd [5]: 0.0339 nM
koff [5]: 6.8e-05 s⁻¹
kon [5]: 2e+06 M⁻¹ s⁻¹
HEK-Blue, IL-1β, IC50 [6]: 0.51 nM
HEK-Blue, IL-33, % inhibition at 100 nM [6]: 95%
HEK-Blue, IL-33, IC50 [6]: 3.15 nM
HEK-Blue, IL-36β, IC50 [6]: 0.9 nM
HEKn, IL-36β stimulated IL-8, IC50 [6]: 1.39 nM
NK cells, IL-33+IL-12 stimulated IFN-γ, IC50 [6]: 2.93 nM
PHLF, IL-1α stimulated IL-8, IC50 [6]: 9.1 nM
PHLF, IL-36β stimulated IL-8, IC50 [6]: 0.39 nM
monocytes, IL-1β stimulated IL-6, IC50 [6]: 0.063 nM
KD (6)/KD (7.4) [7]: 10 ratio
KD (7.4) ratio to YIS [7]: 0.86 ratio
koff (6) ratio to YIS [7]: 3.8 ratio
KD (6)/KD (7.4) [8]: 4.8 ratio
KD (7.4) ratio to YIS [8]: 2.4 ratio
koff (6) ratio to YIS [8]: 4.7 ratio
Kd [9]: 558 nM
Kd [10]: 45.6 nM
Kd [11]: 0.0304 nM
koff [11]: 6.15e-05 s⁻¹
kon [11]: 2.03e+06 M⁻¹ s⁻¹
Kd [12]: 0.0223 nM
koff [12]: 5.39e-05 s⁻¹
kon [12]: 2.41e+06 M⁻¹ s⁻¹
B1: h11C5 variant K17/H2 IgG (YKD) (antibody)
heavy: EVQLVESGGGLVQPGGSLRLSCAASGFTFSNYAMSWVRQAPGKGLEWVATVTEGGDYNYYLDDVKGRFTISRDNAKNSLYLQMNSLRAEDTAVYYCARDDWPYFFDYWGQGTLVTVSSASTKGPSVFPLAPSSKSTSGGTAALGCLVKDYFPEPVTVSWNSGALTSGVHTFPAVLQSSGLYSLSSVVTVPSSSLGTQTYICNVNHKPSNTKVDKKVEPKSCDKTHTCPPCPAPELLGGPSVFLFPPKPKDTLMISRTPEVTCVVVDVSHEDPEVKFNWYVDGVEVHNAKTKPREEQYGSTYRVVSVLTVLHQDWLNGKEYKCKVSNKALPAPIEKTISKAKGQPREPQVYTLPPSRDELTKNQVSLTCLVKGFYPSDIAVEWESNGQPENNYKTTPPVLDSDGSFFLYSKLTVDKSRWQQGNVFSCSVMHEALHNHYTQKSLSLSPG
light: DIQMTQSPSSLSASVGDRVTITCRASENIYSNLAWYQQKPGKSPKLLVYGYKNLADGVPSRFSGSGSGTDYTLTISSLQPEDFATYYCQHFKTTPRTFGGGTKVEIKRTVAAPSVFIFPPSDEQLKSGTASVVCLLNNFYPREAKVQWKVDNALQSGNSQESVTEQDSKDSTYSLSSTLTLSKADYEKHKVYACEVTHQGLSSPVTKSFNRGEC
notes: Human IgG1 N297G; also called 11C5-YKD

HEK-Blue, IL-1β, % inhibition at 100 nM [13]: 64%
HEK-Blue, IL-33, % inhibition at 100 nM [13]: 27%
A450 [14]: 0.602 A450
A450 [15]: 1.09 A450
A450 [16]: 0.987 A450
EC50 [17]: 0.186 nM
EC50 [18]: 0.262 nM
EC50 [20]: 0.257 nM
HEK-Blue SEAP, IL-1β, % inhibition (supernatant) [21]: 45%
HEK-Blue SEAP, IL-33, % inhibition (supernatant) [21]: 26%
B2: 8H1 (purified mAb from hybridoma 8H1) (antibody, V domains shown)
VH: QVQLQQSGPELVKSGASVRISCKASGYAFSGSWMNWVKQRPGKGLEWIGRIYPGDGNTNYNGKFKDKATLTADKSSSTAFMQLSSLTSEDSAVYFCARDYYLFYFDYWGQGTTLTVSS
VL: NIVMTQTPKFLPVAAEDRVIITCKASQDVSNEVAWYQQKPGQSPKLLMYYASNRYTGVPDRFTGSGSGTDFTFTISSVQVEDLAVYFCQQHYSSPLTFGAGTKLELK
notes: Mouse hybridoma mAb
binding result [19]: no binding (tested: 20 nM (highest tested))

HEK-Blue, IL-1β, % inhibition at 100 nM [13]: 86%
HEK-Blue, IL-33, % inhibition at 100 nM [13]: 46%
A450 [14]: 0.957 A450
A450 [15]: 1.14 A450
A450 [16]: 1.05 A450
EC50 [17]: 0.036 nM
EC50 [18]: 0.039 nM
EC50 [20]: 0.043 nM
HEK-Blue SEAP, IL-1β, % inhibition (supernatant) [21]: 40%
HEK-Blue SEAP, IL-33, % inhibition (supernatant) [21]: 18%
B3: 9D5 (purified mAb from hybridoma 9D5) (antibody, V domains shown)
VH: QVQLQQSGAELARPGASVKFSCKASGYTFTSYWMQWVKQRPGQGLEWIGTIYPGDGNTRYTQKFKGKATLTADKSSSTAYMQLSGLASEDSAVYYCARGYFGNLVFDVWGAGTTVTVSS
VL: DIKMTQSPSSMYASLGERVTITCKASQDINTYLSWFLQKPGKSPKTLIYRADRLVDGVPSRFSGGGSGQDYSLTISSLEYEDLGIYYCLQYDEFPYTFGSGTKLEIK
notes: Mouse hybridoma mAb
binding result [19]: no binding (tested: 20 nM (highest tested))
